Source: patent US20030219848A1 (DISCOVERX, published 2003)

Target: enzyme acceptor (EA) fragment of β-galactosidase (UniProt P00722 2-1024 = β-galactosidase, limits assumed)
Assay: cell-based or functional assay

Sequence of enzyme acceptor (EA) fragment of β-galactosidase (P00722 other isoform, or with tags, fused parts or gaps limits assumed): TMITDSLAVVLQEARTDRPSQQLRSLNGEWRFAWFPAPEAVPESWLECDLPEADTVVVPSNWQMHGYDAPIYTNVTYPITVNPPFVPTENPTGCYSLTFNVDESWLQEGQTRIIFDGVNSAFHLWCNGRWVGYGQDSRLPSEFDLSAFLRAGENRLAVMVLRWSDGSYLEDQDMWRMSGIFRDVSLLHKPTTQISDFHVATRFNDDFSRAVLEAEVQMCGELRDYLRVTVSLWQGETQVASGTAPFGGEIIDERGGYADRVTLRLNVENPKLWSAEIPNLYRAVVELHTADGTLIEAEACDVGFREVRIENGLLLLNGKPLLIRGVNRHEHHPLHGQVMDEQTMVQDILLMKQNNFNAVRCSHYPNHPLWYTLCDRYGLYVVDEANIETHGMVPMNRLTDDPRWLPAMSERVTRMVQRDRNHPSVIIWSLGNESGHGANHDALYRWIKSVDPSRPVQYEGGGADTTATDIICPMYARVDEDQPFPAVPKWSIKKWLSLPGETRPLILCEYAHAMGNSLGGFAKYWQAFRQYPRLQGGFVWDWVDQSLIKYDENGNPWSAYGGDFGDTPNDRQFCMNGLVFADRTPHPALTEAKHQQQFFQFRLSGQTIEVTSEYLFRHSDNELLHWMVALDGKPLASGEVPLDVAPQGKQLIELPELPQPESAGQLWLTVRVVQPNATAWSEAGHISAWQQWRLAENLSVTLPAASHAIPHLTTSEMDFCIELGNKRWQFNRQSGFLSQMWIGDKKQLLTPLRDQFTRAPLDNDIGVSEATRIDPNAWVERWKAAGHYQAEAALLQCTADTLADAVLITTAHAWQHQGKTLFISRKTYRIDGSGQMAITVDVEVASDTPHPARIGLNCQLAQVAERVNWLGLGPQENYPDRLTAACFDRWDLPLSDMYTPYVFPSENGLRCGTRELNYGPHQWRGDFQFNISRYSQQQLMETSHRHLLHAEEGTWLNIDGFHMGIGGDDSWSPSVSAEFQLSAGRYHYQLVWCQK

| Binder | complementation activity (β-galactosidase activity after ED + EA incubation) relative to native 90 mer ED 28 (SEQ ID 17), ED 0.0123 nM, 60 min [%] | complementation activity relative to native 90 mer ED 28 (SEQ ID 17), at the same concentration (0.0123 nM) [%] |
| --- | --- | --- |
| SLAVVLQRRDWENPGVTQLNRLAAHPPFASWRNSEEA [37 mer ED (SEQ ID NO 1), short enzyme donor fragment of β-galactosidase] | 45 | – |
| SLAVVLQRRDWENPGVTQLNKLAAHPPFASWRNSEEARTDCPSQQL [46 mer ED (SEQ ID NO 10)] | – | 72 |
